For test [1], the target named is T1, N43 (gp41 NHR peptide, Val539~Leu581) (HIV-1 (numbering of HIV-1 HXB2 gp160), UniProt P04578 539-581). Nature of the test: cell-based or functional assay.
The target in test [2] is T1, N43 (gp41 NHR peptide, Val539~Leu581). Nature of the test: cell-based or functional assay. This is another data set of the same source.

T1 sequence (P04578 539-581): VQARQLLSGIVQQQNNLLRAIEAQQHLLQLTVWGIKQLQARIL

As to WMEWDREINNYTSLIHSLIEESQNQQIDL [CP-IDL], in test [1], the “IC50 of inhibition of infection, T20-resistant strain N42T, N43K” value was found to be 382 nM; the “IC50 of inhibition of infection, T2635-resistant strain K154Q” value turned out to be 9.79 nM; the “IC50 of inhibition of infection, T2635-resistant strain N113E” value came out at 7.99 nM; the “IC50 of inhibition of infection, T2635-resistant strain N126K” value turned out to be 46.4 nM. In addition, in test [1], the “IC50 of inhibition of infection, T2635-resistant strain Q66R, N126K” value is 302 nM; the “IC50 of inhibition of infection, panel of T20-resistant strains: WT” value came to 8.67 nM; the “IC50 of inhibition of infection, panel of T2635-resistant strains: WT” value amounted to 10.8 nM. Moreover, in test [2], the “IC50 of inhibition of HIV-1 pseudovirus B1206.W6P.ENV.A1 (subtype A)” value was determined as 74.5 nM, the “IC50 of inhibition of HIV-1 pseudovirus BG505.W6M.ENV.C2 (subtype A)” value is 8.61 nM, the “IC50 of inhibition of HIV-1 pseudovirus BJ412.W6M.ENV.S3 (subtype C)” value was found to be 1.21 nM and the “IC50 of inhibition of HIV-1 pseudovirus MJ412.W0M.ENV.B1 (subtype C)” value worked out at 2.24 nM. For the same molecule, in test [2], the “IC50 of inhibition of HIV-1 pseudovirus SF162.LS (subtype B, R5, Tier 1)” value was determined as 1.51 nM; the “IC50 of inhibition of HIV-1 pseudovirus ZM109F.PB4 (subtype C, R5)” value stood at 2.93 nM; the “IC50 of inhibition of HIV-1 pseudovirus pCH119 env (subtype BC, R5, Tier 2)” value is 5.79 nM.
